According to US8361728B2, “Method for diagnosis of glutamate dehydrogenase disorders” (priority 2008, dated 2013):

tested on: N; assay: purified protein, by the assay type

Chain of Ser445-hGDH2 (Homo sapiens) (chain, as listed by the source): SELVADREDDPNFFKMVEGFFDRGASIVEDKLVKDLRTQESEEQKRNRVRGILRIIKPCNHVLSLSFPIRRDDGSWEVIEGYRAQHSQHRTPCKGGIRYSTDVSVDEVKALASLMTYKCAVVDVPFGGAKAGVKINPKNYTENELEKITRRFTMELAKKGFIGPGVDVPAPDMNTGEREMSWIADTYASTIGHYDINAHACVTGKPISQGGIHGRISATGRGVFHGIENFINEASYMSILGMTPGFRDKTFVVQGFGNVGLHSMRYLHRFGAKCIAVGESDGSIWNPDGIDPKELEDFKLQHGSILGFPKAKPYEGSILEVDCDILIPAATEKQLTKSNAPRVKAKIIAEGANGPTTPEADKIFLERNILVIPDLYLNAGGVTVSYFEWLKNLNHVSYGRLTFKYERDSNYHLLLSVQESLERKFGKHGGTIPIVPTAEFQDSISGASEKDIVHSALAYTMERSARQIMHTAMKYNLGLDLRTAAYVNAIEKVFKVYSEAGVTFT
Chain of Ala445-hGDH2 (Homo sapiens; S498A) (chain, as listed by the source S498A): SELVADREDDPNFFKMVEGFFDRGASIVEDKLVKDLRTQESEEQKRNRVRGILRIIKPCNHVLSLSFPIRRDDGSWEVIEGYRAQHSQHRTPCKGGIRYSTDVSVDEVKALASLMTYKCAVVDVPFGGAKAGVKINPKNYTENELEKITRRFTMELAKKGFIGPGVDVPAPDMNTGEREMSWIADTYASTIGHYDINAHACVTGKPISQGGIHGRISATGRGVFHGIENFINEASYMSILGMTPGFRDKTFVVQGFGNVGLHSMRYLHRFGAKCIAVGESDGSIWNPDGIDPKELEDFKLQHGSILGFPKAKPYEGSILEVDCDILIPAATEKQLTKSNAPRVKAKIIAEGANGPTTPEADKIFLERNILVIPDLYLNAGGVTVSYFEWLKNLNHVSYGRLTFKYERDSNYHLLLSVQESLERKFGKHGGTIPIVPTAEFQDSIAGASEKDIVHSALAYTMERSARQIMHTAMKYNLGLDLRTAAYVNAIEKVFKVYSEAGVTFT

Ala445-hGDH2 (Homo sapiens; S498A) and Ser445-hGDH2 (Homo sapiens) are within error of each other in Km: 21.36 ± 3.56 mM for the first, 17.05 ± 2.01 mM for the second.

hGDH1 (Homo sapiens) gave a Km of 13.39 ± 0.72 mM.
